From patent publication US20230364262A1, “VIA CYCLOADDITION BILATERALLY FUNCTIONALIZED ANTIBODIES” (SYNAFFIX B.V., priority 2020, published 2023)

Columns and labels:
[1] = molecular target: CD3 (UniProt P07766); assay: flow cytometry on Jurkat E6.1 cells, 31.6 nM, anti-HIS-PE
[2] = molecular target: CD3 (UniProt P07766); assay: flow cytometry on Jurkat E6.1 cells, 100 nM, anti-HIS-PE
[3] = molecular target: CD3 (UniProt P07766); assay: flow cytometry on Jurkat E6.1 cells, 316 nM, anti-HIS-PE
[4] = molecular target: CD3 (UniProt P07766); assay: flow cytometry on Jurkat E6.1 cells, 0.32 nM, anti-HIS-PE
[5] = molecular target: CD3 (UniProt P07766); assay: flow cytometry on Jurkat E6.1 cells, 1 nM, anti-HIS-PE
[6] = molecular target: CD3 (UniProt P07766); assay: flow cytometry on Jurkat E6.1 cells, 1000 nM, anti-HIS-PE
[7] = molecular target: CD3 (UniProt P07766); assay: flow cytometry on Jurkat E6.1 cells, 3.16 nM, anti-HIS-PE
[8] = molecular target: CD3 (UniProt P07766); assay: flow cytometry on Jurkat E6.1 cells, 10 nM, anti-HIS-PE
[9] = molecular target: T1, CD3 (CD3-positive Jurkat E6.1 cells) (Homo sapiens, UniProt P07766); assay: CD3 binding analysis by FACS on CD3-positive cells; settings: Table 1
T1 construct: Jurkat E6.1 cells, which express CD3 on the cell surface; endogenous in cells; host or cells: Jurkat E6.1
T1 sequence (P07766 23-207): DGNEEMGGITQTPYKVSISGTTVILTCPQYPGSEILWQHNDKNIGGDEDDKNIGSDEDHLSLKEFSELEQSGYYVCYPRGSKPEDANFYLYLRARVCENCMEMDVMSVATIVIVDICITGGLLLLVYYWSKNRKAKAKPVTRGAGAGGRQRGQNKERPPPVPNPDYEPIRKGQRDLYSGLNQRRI
T1 sequence (P09693 23-182 partner): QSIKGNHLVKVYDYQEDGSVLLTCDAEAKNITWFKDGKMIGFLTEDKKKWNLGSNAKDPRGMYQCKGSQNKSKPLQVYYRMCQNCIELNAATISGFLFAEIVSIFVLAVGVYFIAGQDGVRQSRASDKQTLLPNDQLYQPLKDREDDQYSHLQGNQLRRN
T1 sequence (P04234 22-171 partner): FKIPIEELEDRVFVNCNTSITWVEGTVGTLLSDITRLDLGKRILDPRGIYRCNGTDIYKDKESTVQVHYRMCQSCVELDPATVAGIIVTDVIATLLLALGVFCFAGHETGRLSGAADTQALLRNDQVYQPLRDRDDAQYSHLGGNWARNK
T1 sequence (P20963 22-164 partner): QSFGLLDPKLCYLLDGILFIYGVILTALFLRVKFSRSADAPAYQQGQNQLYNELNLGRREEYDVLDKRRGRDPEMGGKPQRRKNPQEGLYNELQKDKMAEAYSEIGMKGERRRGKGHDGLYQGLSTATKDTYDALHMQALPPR
Procedure: Both cell lines were cultured in RPMI 1640 supplemented with 1% pen/strep and 10% fetal bovine serum at a concentration of 2 × 10^5 to 1 × 10^6 cells/ml. Cells were washed in fresh medium before the experiment and 100,000 cells per well were seeded in a 96-wells plate (duplicate wells). The dilution series of 6 antibodies were made in phosphate-buffered saline (PBS). The antibodies were diluted 10 times in the cell suspension and incubated at 4° C. in the dark for 30 minutes. After incubation, the cells were washed twice in cold PBS / 0.5% BSA, and incubated with anti-HIS-PE (only for 200) or anti-lgG1-PE (for all other compounds) at 4° C., in the dark for 30 minutes. After the second incubation step, the cells were washed twice. 7AAD was added as a live-dead staining. Detection of the fluorescence in the Yellow-B channel (anti-IgG1-PE and anti-HIS-PE) and the Red-B channel (7AAD) was done with the Guava 5HT flow cytometer. Median fluorescence intensity in the Yellow-B channel (anti-IgG1-PE and anti-HIS-PE) in life cells was determined with Kaluza software.

CD3, sequence (P07766 23-207): as the sequence (P07766 23-207) above

median fluorescence intensity [1] | median fluorescence intensity [2] | median fluorescence intensity [3] | median fluorescence intensity [4] | median fluorescence intensity [5] | median fluorescence intensity [6] | median fluorescence intensity [7] | median fluorescence intensity [8] | concentration-dependent binding to the CD3 positive Jurkat E6.1 cell line [9] | Substance
154 | 177 | 224 | 63.6 | 66.2 | 417 | 83.7 | 110 |  | Humanized OKT3 (hOKT3) with C-terminal sortase A recognition sequence (scFv)
 |  |  |  |  |  |  |  | not | Rituximab
